One block for each substance: values may come before it. Ends that are not written are not given here.
Legend:
A1PI [1] = molecular target: T1, A1PI (Homo sapiens, UniProt P01009); assay: A1PI binding on peptide-resin column, injection of 1 mg A1PI in equilibration buffer; settings: for % of Total A1PI Eluted by Fraction (Based on Absorbance at 280 nm), 1M NaCl / % of Total A1PI Eluted by Fraction (Based on Absorbance at 280 nm), 2% Acetic Acid / % of Total A1PI Eluted by Fraction (Based on Absorbance at 280 nm), Flowthrough: 1 mg A1PI; for Percent A1PI Eluted by Fraction Based on Absorbance at 280 nm, 1M NaCl / Percent A1PI Eluted by Fraction Based on Absorbance at 280 nm, 2% Acetic Acid / Percent A1PI Eluted by Fraction Based on Absorbance at 280 nm, Flowthrough / Percent A1PI Eluted by Fraction, 1M NaCl / Percent A1PI Eluted by Fraction, 2% Acetic Acid / Percent A1PI Eluted by Fraction, Flowthrough: 1 mg A1PI in equilibration buffer
T1 construct: Human plasma is currently the only approved source of therapeutic AlPI
T1 sequence (P01009 25-418): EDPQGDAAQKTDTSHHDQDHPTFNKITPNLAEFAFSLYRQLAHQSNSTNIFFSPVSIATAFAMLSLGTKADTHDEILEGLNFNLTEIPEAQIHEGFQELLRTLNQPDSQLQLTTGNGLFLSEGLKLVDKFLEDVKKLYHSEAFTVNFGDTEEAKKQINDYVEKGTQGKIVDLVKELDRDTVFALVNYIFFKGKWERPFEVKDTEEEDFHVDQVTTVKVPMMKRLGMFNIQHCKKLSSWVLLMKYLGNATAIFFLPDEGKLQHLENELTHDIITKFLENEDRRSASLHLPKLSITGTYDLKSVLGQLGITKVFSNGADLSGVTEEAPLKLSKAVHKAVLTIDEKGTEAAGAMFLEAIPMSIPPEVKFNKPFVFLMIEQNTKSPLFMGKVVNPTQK
Description: (§1) Confirmatory binding assays were performed in a column chromatographic format on a microbore HPLC using individual peptide sequences synthesized directly onto the Toyopearl 650 M Chelate resin which had been modified with Totda followed by an alanine residue (A-Totda-Toyopearl), at a final substitution density of 0.1 mmole/g resin. The resin was packed into 0.4×5 cm columns (Thomson, Springfield, Va.) and tested on the Michrom HPLC system (Michrom BioResources, Auburn, Calif.). The elution program for all trials utilized the following method. The column was pre-equilibrated with equilibration buffer (as above). 1 ml of sample was injected and allowed sufficient time to flowthrough the column using equilibration buffer. The column was then washed with step elutions of 1M NaCl and 3M NaCl in equilibration buffer. The column was exposed to equilibration buffer with 0.1M NaCl. Any remaining protein was eluted with elution buffer (2% by volume glacial acetic acid in water).
(§2) A Gilson FC204 fraction collector at the HPLC outlet collected individual eluates for further analysis. Fractions collected from the 2% acetic acid eluates were neutralized with 2M Tris, pH 10.5 to bring the pH to neutrality. The protein samples were reconstituted in equilibration buffer unless otherwise stated. The samples were analyzed by the integration of the absorbance at 280 nm or by immunonephelometry. The specific method of determination is presented for each figure.
Tables 2 and 3 present the elution profiles for 19 sequences based on the injection of 1 mg AlPI in equilibration buffer at 4° C. and 20° C., respectively. The columns were run at a constant flow rate of865 μl/min (413 cm/hr) or 523 μl/min (250 cm/hr). No dependence of the elution profile with flow rate was found. The Percent AlPI Eluted by Fraction represents the amount eluted in the flowthrough, 1M NaCl wash, and 2% acetic acid fractions relative to the total AlPI eluted. The percentages are based on either the integration of the peak areas at […]

A1PI [2] = molecular target: T1, A1PI; assay: A1PI purification from 5 mg hSA + 1 mg A1PI on peptide column, A1PI mass balance; assay type: binding; settings: A1PI, 5 mg hSA + 1 mg A1PI; for Percent Eluted by Fraction, 1M NaCl / Percent Eluted by Fraction, 2% Ac. Acid / Percent Eluted by Fraction, 3M NaCl / Percent Eluted by Fraction, Flow: relative to total eluted
Description: as §1, §2
Columns were assayed with a mixture of 5 mg human serum albumin (hSA)+1 mg AlPI at 4° C. (Table 4, Seq. ID 1-11, 15, 17) and 20° C. (Table 5, Seq. ID 1-10, 13, 15, 17). The chromatography method was modified to provide for a 10 minute residence time of sample in the column by decreasing the flow to 17 μl/min (10 cm/hr) upon injection. Following the incubation, the flow was set at 865 μl/min (413 cm/hr) for the step elutions of 1M NaCl, 3M NaCl, and 2% acetic acid. The mass balances presented are based upon immunonephelometry. The Percent Eluted value is protein-specific and based on the amount of the protein eluted in a […]

[3] = 20° C., * Below detection limit

% of Total A1PI Eluted by Fraction (Based on Absorbance at 280 nm), 1M NaCl (A1PI [1]; Trp position mutations, 4° C.): 90%
% of Total A1PI Eluted by Fraction (Based on Absorbance at 280 nm), 2% Acetic Acid (A1PI [1]; Trp position mutations, 4° C.): 10%
% of Total A1PI Eluted by Fraction (Based on Absorbance at 280 nm), Flowthrough (A1PI [1]; Trp position mutations, 4° C.): 0%
% of Total A1PI Eluted by Fraction (Based on Absorbance at 280 nm), 1M NaCl (A1PI [1]; Trp position mutations, 20° C.): 45%
% of Total A1PI Eluted by Fraction (Based on Absorbance at 280 nm), 2% Acetic Acid (A1PI [1]; Trp position mutations, 20° C.): 55%
% of Total A1PI Eluted by Fraction (Based on Absorbance at 280 nm), Flowthrough (A1PI [1]; Trp position mutations, 20° C.): 0%
Substance: V I R L V R: VIWLVR with Trp at position 3 replaced by Arg (VIRLVR)

% of Total A1PI Eluted by Fraction (Based on Absorbance at 280 nm), 1M NaCl (A1PI [1]; VIFLVR point mutations, 4° C.): 66%
% of Total A1PI Eluted by Fraction (Based on Absorbance at 280 nm), 2% Acetic Acid (A1PI [1]; VIFLVR point mutations, 4° C.): 34%
% of Total A1PI Eluted by Fraction (Based on Absorbance at 280 nm), Flowthrough (A1PI [1]; VIFLVR point mutations, 4° C.): 0%
% of Total A1PI Eluted by Fraction (Based on Absorbance at 280 nm), 1M NaCl (A1PI [1]; VIFLVR point mutations, 20° C.): 49%
% of Total A1PI Eluted by Fraction (Based on Absorbance at 280 nm), 2% Acetic Acid (A1PI [1]; VIFLVR point mutations, 20° C.): 51%
% of Total A1PI Eluted by Fraction (Based on Absorbance at 280 nm), Flowthrough (A1PI [1]; VIFLVR point mutations, 20° C.): 0%
Substance: V K F L V R: point mutation of VIFLVR, position 2 (VKFLVR)

Percent A1PI Eluted by Fraction Based on Absorbance at 280 nm, 1M NaCl (A1PI [1]; 4° C.): 91%
Percent A1PI Eluted by Fraction Based on Absorbance at 280 nm, 2% Acetic Acid (A1PI [1]; 4° C.): 9%
Percent A1PI Eluted by Fraction Based on Absorbance at 280 nm, Flowthrough (A1PI [1]; 4° C.): 0%
Percent A1PI Eluted by Fraction, 1M NaCl (A1PI [1]; 20° C.): 97%
Percent A1PI Eluted by Fraction, 2% Acetic Acid (A1PI [1]; 20° C.): 3%
Percent A1PI Eluted by Fraction, Flowthrough (A1PI [1]; 20° C.): 0%
Substance: WSSKRY

The remaining lines, values behind:

Substance: V R F L V R: point mutation of VIFLVR, position 2 (VRFLVR)
% of Total A1PI Eluted by Fraction (Based on Absorbance at 280 nm), 1M NaCl (A1PI [1]; VIFLVR point mutations, 4° C.): 39%
% of Total A1PI Eluted by Fraction (Based on Absorbance at 280 nm), 2% Acetic Acid (A1PI [1]; VIFLVR point mutations, 4° C.): 61%
% of Total A1PI Eluted by Fraction (Based on Absorbance at 280 nm), Flowthrough (A1PI [1]; VIFLVR point mutations, 4° C.): 0%

Substance: VIFLVA: point mutation of VIFLVR, position 6, C-terminal Arg replaced with Ala
binding of AlPI (in words) (A1PI [1]): little binding of AlPI
% of Total A1PI Eluted by Fraction (Based on Absorbance at 280 nm), 1M NaCl (A1PI [1]; VIFLVR point mutations, 4° C.): 2%
% of Total A1PI Eluted by Fraction (Based on Absorbance at 280 nm), 2% Acetic Acid (A1PI [1]; VIFLVR point mutations, 4° C.): 21%
% of Total A1PI Eluted by Fraction (Based on Absorbance at 280 nm), Flowthrough (A1PI [1]; VIFLVR point mutations, 4° C.): 77%
% of Total A1PI Eluted by Fraction (Based on Absorbance at 280 nm), 1M NaCl (A1PI [1]; VIFLVR point mutations, 20° C.): 0%
% of Total A1PI Eluted by Fraction (Based on Absorbance at 280 nm), 2% Acetic Acid (A1PI [1]; VIFLVR point mutations, 20° C.): 8%
% of Total A1PI Eluted by Fraction (Based on Absorbance at 280 nm), Flowthrough (A1PI [1]; VIFLVR point mutations, 20° C.): 92%

Substance: WIKWTK
Mass Protein per Eluate Fraction, 1M NaCl (A1PI [2]; [3]): 0.80 mg
Mass Protein per Eluate Fraction, Flow (A1PI [2]; [3]): 0.02 mg
Percent Eluted by Fraction, 1M NaCl (A1PI [2]; 20° C.): 97%
Percent Eluted by Fraction, 2% Ac. Acid (A1PI [2]; 20° C.): 0%
Percent Eluted by Fraction, 3M NaCl (A1PI [2]; 20° C.): 0%
Percent Eluted by Fraction, Flow (A1PI [2]; 20° C.): 3%
Percent A1PI Eluted by Fraction Based on Absorbance at 280 nm, 1M NaCl (A1PI [1]; 4° C.): 100%
Percent A1PI Eluted by Fraction Based on Absorbance at 280 nm, 2% Acetic Acid (A1PI [1]; 4° C.): 0%
Percent A1PI Eluted by Fraction Based on Absorbance at 280 nm, Flowthrough (A1PI [1]; 4° C.): 0%
Percent A1PI Eluted by Fraction, 1M NaCl (A1PI [1]; 20° C.): 91%
Percent A1PI Eluted by Fraction, 2% Acetic Acid (A1PI [1]; 20° C.): 2%
Percent A1PI Eluted by Fraction, Flowthrough (A1PI [1]; 20° C.): 7%

Substance: WKLWRW
Mass Protein per Eluate Fraction, 1M NaCl (A1PI [2]; 4° C., * Below detection limit): 0.44 mg
Mass Protein per Eluate Fraction, 2% Ac. Acid (A1PI [2]; 4° C., * Below detection limit): 0.06 mg
Mass Protein per Eluate Fraction, Flow (A1PI [2]; 4° C., * Below detection limit): 0.17 mg
Percent Eluted by Fraction, 1M NaCl (A1PI [2]; 4° C.): 66%
Percent Eluted by Fraction, 2% Ac. Acid (A1PI [2]; 4° C.): 9%
Percent Eluted by Fraction, Flow (A1PI [2]; 4° C.): 25%
Mass Protein per Eluate Fraction, 1M NaCl (A1PI [2]; [3]): 0.15 mg
Mass Protein per Eluate Fraction, 2% Ac. Acid (A1PI [2]; [3]): 0.40 mg
Mass Protein per Eluate Fraction, 3M NaCl (A1PI [2]; [3]): 0.05 mg
Mass Protein per Eluate Fraction, Flow (A1PI [2]; [3]): 0.16 mg
Percent Eluted by Fraction, 1M NaCl (A1PI [2]; 20° C.): 20%
Percent Eluted by Fraction, 2% Ac. Acid (A1PI [2]; 20° C.): 52%
Percent Eluted by Fraction, 3M NaCl (A1PI [2]; 20° C.): 7%
Percent Eluted by Fraction, Flow (A1PI [2]; 20° C.): 21%
Percent A1PI Eluted by Fraction Based on Absorbance at 280 nm, 1M NaCl (A1PI [1]; 4° C.): 80%
Percent A1PI Eluted by Fraction Based on Absorbance at 280 nm, 2% Acetic Acid (A1PI [1]; 4° C.): 20%
Percent A1PI Eluted by Fraction Based on Absorbance at 280 nm, Flowthrough (A1PI [1]; 4° C.): 0%
Percent A1PI Eluted by Fraction, 1M NaCl (A1PI [1]; 20° C.): 67%
Percent A1PI Eluted by Fraction, 2% Acetic Acid (A1PI [1]; 20° C.): 33%
Percent A1PI Eluted by Fraction, Flowthrough (A1PI [1]; 20° C.): 0%

— patent US5985836A, “Alpha-1 proteinase inhibitor binding peptides” (Bayer Corporation, priority 1998, dated 1999)
